From patent US20150098945A1 (Daiichi Sankyo, published 2015)

Target: T1, human ROBO3 (pCI-hROBO3-transfected HEK293 cells) (human, UniProt Q96MS0 21-1386)
T1 sequence: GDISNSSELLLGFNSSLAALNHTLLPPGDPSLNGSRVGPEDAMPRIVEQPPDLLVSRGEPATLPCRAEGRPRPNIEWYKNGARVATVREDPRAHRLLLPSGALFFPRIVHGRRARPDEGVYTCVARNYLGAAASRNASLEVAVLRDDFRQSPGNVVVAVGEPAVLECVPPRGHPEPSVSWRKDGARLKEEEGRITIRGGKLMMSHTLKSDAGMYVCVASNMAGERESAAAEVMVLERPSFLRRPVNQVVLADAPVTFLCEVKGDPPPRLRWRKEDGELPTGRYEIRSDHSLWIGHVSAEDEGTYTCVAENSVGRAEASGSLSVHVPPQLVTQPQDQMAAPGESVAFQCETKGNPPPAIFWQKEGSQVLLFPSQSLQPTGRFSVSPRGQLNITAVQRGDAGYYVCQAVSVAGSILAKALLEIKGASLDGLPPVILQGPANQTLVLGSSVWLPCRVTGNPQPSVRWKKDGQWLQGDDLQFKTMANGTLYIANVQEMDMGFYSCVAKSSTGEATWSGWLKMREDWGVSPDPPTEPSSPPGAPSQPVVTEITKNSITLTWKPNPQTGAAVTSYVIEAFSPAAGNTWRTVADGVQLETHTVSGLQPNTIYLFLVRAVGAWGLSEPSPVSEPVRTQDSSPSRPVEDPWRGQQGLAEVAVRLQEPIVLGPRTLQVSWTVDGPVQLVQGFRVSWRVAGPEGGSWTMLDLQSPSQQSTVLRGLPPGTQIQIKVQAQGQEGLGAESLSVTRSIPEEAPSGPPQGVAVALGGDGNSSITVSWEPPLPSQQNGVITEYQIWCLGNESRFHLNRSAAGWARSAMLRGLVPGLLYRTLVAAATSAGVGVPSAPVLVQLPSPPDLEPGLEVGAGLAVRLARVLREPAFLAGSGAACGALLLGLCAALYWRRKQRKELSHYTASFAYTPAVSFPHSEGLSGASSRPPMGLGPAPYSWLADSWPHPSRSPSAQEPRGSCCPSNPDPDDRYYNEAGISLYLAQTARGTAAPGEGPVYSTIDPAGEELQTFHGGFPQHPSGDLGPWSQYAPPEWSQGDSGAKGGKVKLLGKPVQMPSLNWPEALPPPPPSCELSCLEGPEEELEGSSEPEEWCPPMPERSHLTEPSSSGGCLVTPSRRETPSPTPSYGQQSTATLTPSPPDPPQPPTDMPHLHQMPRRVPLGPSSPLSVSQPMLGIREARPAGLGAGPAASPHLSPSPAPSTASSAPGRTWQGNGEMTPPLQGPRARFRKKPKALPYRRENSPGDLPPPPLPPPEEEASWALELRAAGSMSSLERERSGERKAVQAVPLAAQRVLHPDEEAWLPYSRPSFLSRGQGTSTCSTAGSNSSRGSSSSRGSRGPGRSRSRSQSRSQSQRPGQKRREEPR
Test: flow cytometry, HEK293 cells transfected with pCI-hROBO3, anti-mouse IgG FITC; control histogram IgG
Experimental: HEK293 cells were inoculated at a concentration of 1.2×10⁶ cells/dish or 1.5×10⁶ cells/dish to a 60-mm dish (manufactured by Corning Inc.) and cultured overnight in a DMEM medium containing 10% FBS at 37° C. under 5% CO₂ conditions. On the next day, the HEK293 cells were transfected with pCI-hROBO4, pCI-FLAG-hROBO1, pCI-hROBO2, or pCI-hROBO3 using FuGENE6 Transfection Reagent and further cultured overnight at 37° C. under 5% CO₂ conditions. On the next day, the expression vector-transfected cells were treated with TrypLE Express (manufactured by Life Technologies Corp.), washed with PBS containing 5% FBS, and then suspended in PBS containing 5% FBS. The obtained cell suspension was used in flow cytometry analysis.
Each cell suspension prepared in 4)-4-1 was centrifuged, and the supernatant was removed. […] Data was analyzed using Flowjo. The histogram of FITC fluorescence intensity was prepared. The antibody was determined to bind in a specific manner when the histogram of MAb1 was shifted to a stronger fluorescence intensity region compared with the histogram of the negative control Mouse IgG1 or Mouse IgG2a. […]

B1: anti-ROBO4 mouse monoclonal antibody MAb1 (antibody, mouse IgG1, V domains shown)
VH: EVQLVESGGGLVKPGGSLKLSCAASGFTFSTYAMSWVRQTPEKRLEWVATISNGGTYTYYPDSVKGRFTISRDNAENTLYLQMSSLRSEDTAMYFCARLIYYDYLDYWGHGTTLTVSS
VL: DAVMTQTPLSLPVSLGDQASISCRSSQSLENSNGNTYLNWYFQKPGQSPQLLIYRVSNRFSGVLDRFSGSGSGTDFTLKISRVEAEDFGVYFCLQVTHVPWTFGGGTKLEIKR
notes: Mouse IgG1 (gamma1), kappa light chain, purified from hybridoma supernatant; also called parent antibody MAb1
binding result: no binding (tested: 10 µg/mL)
